According to patent US20100260668A1 (published 2010):
“And” between values parts separate entries of the source, which are not always exact repeats. Equal entries are not always repeated.

Assays:
[1] = target: T1, biotin-labeled human DLL4 extracellular domain (human, UniProt Q9NR61 27-529, biotin-labeled); assay: capture ELISA, antibody captured by anti-human Fc, biotin-labeled human DLL4 ECD
T1 construct: extracellular domain
Method: (§1) ELISA plates were washed three times with wash buffer (PBS, 0.05% Tween 20) and then blocked with 200 μl/well blocking buffer (D-PBS, 1% BSA, 1 mM CaCl₂, 0.05% Tween 20) for 1 hour at 25° C.

[2] = target: T1, biotin-labeled human DLL4 extracellular …; assay: DLL4 capture ELISA, antibody captured by anti-human Fc, biotin-labeled human DLL4 ECD
[3] = target: T2, IGF1 (IGF-I) (UniProt P05019 49-118); assay: Direct Bind ELISA, antigen on plate; C-terminal VD; first value of IGF1/IGF2 cell
T2 construct: Bought reagent
Method: (§2) Enzyme Linked Immunosorbent Assays to screen for antibodies that bind a desired target antigen were performed as follows. […] Plates were washed four times with PBS containing 0.02% Tween 20. Plates were blocked by the addition of 300 μL/well blocking solution (non-fat dry milk powder, various retail suppliers, diluted to 2% in PBS) for ½ hour at room temperature. Plates were washed four times after blocking with PBS containing 0.02% Tween 20.
(§3) One hundred microliters of antibody or DVD-Ig preparations diluted in blocking solution as described above was added to the desired target antigen plate or desired target antigen/FC fusion plate or the anti-polyHistidine antibody/His tagged desired target antigen plate prepared as described above and incubated for 1 hour at room temperature. Wells are washed four times with PBS containing 0.02% Tween 20.
(§4) Plates were washed 4 times with PBS containing 0.02% Tween 20.

[4] = target: T3, IGF2 (IGF-2) (UniProt P01344 25-91); assay: Direct Bind ELISA, antigen on plate; C-terminal VD; second value of IGF1/IGF2 cell
T3 construct: Bought reagent
Method: as §2, §3, §4

[5] = target: T4, NRP1 (Neuropilin-1 Npn-1-His tag) (UniProt O14786-2 22-644); assay: Direct Bind ELISA, antigen on plate
T4 construct: Bought reagent
Method: as §2
(§5) Alternatively, one hundred microliters per well of 10 μg/ml of Histidine (His) tagged desired target antigen (R&D Systems, Minneapolis, Minn.) was added to ELISA plates coated with monoclonal mouse anti-polyHistidine antibody as described above and incubated for 1 hour at room temperature. Wells were washed four times with PBS containing 0.02% Tween 20.
as §3

[6] = target: T2, IGF1 (IGF-I); assay: Direct Bind ELISA, antigen on plate; N-terminal VD; first value of IGF1/IGF2 cell
Method: as §2, §3, §4

[7] = target: T3, IGF2 (IGF-2); assay: Direct Bind ELISA, antigen on plate; N-terminal VD; second value of IGF1/IGF2 cell
Method: as §2, §3, §4

[8] = target: T5, biotinylated VEGF (UniProt P15692-4 27-191, limits assumed, biotinylated); assay: VEGF capture ELISA, antibody captured by anti-human Fc, biotinylated VEGF
[9] = target: T2, IGF1 (IGF-I); assay: Direct Bind ELISA, antigen on plate; first value of IGF1/IGF2 cell
Method: as §2, §3, §4

[10] = target: T3, IGF2 (IGF-2); assay: Direct Bind ELISA, antigen on plate; second value of IGF1/IGF2 cell
[11] = target: T5, biotinylated VEGF; assay: capture ELISA, DVD-Ig captured by anti-human Fc, biotinylated VEGF; N-terminal VD
Method: ELISA plates (Nunc, MaxiSorp, Rochester, N.Y.) were incubated overnight at 4° C. with anti-human Fc antibody (5 μg/ml in PBS, Jackson Immunoresearch, West Grove, Pa.). Plates were washed three times in washing buffer (PBS containing 0.05% Tween 20), and blocked for 1 hour at 25° C. in blocking buffer (PBS containing 1% BSA). Wells were washed three times, and serial dilutions of each antibody or DVD-Ig in PBS containing 0.1% BSA were added to the wells and incubated at 25° C. for 1 hour. […] The wells were washed three times, and 100 μl of ULTRA-TMB ELISA (Pierce, Rockford, Ill.) were added per well.

[12] = target: biotin-labeled human IGF1 (human, UniProt P05019 49-118, biotin-labeled); assay: capture ELISA, DVD-Ig captured by anti-human Fc, biotin-labeled IGF1; C-terminal VD
Method: (§6) ELISA plates were washed three times in wash buffer (PBS, 0.05% Tween 20) and then blocked with 200 μl/well blocking buffer (D-PBS, 1% BSA) for 1 hour at 25° C. Plates were then washed and incubated with 100 μl/well antibodies or DVD-Igs (0.01 μg/mL-100 μg/mL in blocking buffer) for 1 hour at 37° C. Plates were then washed three times and incubated with biotin-labeled human IGF1 or IGF2 (0.02 nM-100 nM dose range in blocking buffer, 100 μl/well) for 1 hour at 37° C. […] The reaction was stopped after 5 minutes at 25° C. with 100 μl/well 2N H2SO4 and the absorbance was read at 450 nm.

[13] = target: biotin-labeled human IGF2 (human, UniProt P01344 25-91, biotin-labeled); assay: capture ELISA, DVD-Ig captured by anti-human Fc, biotin-labeled IGF2; C-terminal VD
Method: as §6

[14] = target: T6, PlGF (Placental GF) (UniProt P49763-2 21-149, limits assumed); assay: Direct Bind ELISA, antigen on plate
T6 construct: Bought reagent
T6 sequence (looked up): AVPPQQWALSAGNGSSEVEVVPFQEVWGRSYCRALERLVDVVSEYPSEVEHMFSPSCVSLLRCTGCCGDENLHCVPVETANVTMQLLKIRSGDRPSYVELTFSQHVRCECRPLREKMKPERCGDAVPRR
Method: as §2, §5, §3

[15] = target: T1, biotin-labeled human DLL4 extracellular …; assay: capture ELISA, DVD-Ig captured by anti-human Fc, biotin-labeled human DLL4 ECD; C-terminal VD
Method: as §1

[16] = target: T4, NRP1 (Neuropilin-1 Npn-1-His tag); assay: Direct Bind ELISA, antigen on plate; C-terminal VD
Method: as §2, §5, §3

[17] = target: T7, DLL4 (DLL4 ECD/His tag) (UniProt Q9NR61 27-529, limits assumed); assay: Direct Bind ELISA, antigen on plate
T7 construct: extracellular domain; Bought reagent
Method: as §2, §5, §3

[18] = target: T4, NRP1 (Neuropilin-1 Npn-1-His tag); assay: Direct Bind ELISA, antigen on plate; N-terminal VD
Method: as §2, §5, §3

T5 sequence (P15692 other isoform, or with tags, fused parts or gaps limits assumed): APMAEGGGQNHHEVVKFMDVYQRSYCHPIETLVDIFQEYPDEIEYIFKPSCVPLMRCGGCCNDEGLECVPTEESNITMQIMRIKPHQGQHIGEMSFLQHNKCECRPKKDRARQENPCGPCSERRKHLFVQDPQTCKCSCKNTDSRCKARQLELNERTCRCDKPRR

B1: AB015 (antibody, human IgG1, kappa)
heavy: not shown
light: DIQMTQSPSSLSASVGDRVTITCRASQDVSTAVAWYQQKPGKAPKLLIYSASFLYSGVPSRFSGSGSGTDFTLTISSLQPEDFATTYYCQQSYTGTVTFGQGTKVEIKRTVAAPSVFIFPPSDEQLKSGTASVVCLLNNFYPREAKVQWKVDNALQSGNSQESVTEQDSKDSTYSLSSTLTLSKADYEKHKVYACEVTHQGLSSPVTKSFNRGEC
- EC50 [1]: 0.03 nM
- EC50 [2]: 0.15 nM and 0.18 nM and 0.14 nM

B2: DVD041 (VEGF (seq. 1) and IGF1,2 DVD-Ig) (bispecific antibody, IgG1)
VH: EVQLVESGGGLVQPGGSLRLSCAASGYTFTNYGMNWVRQAPGKGLEWVGWINTYTGEPTYAADFKRRFTFSLDTSKSTAYLQMNSLRAEDTAVYYCAKYPHYYGSSHWYFDVWGQGTLVTVSSASTKGPQVQLVQSGAEVKKPGASVKVSCKASGYTFTSYDINWVRQATGQGLEWMGWMNPNSGNTGYAQKFQGRVTMTRNTSISTAYMELSSLRSEDTAVYYCARDPYYYYYGMDVWGQGTTVTVSS
VL: DIQMTQSPSSLSASVGDRVTITCSASQDISNYLNWYQQKPGKAPKVLIYFTSSLHSGVPSRFSGSGSGTDFTLTISSLQPEDFATYYCQQYSTVPWTFGQGTKVEIKRTVAAPQSVLTQPPSVSAAPGQKVTISCSGSSSNIENNHVSWYQQLPGTAPKLLIYDNNKRPSGIPDRFSGSKSGTSATLGITGLQTGDEADYYCETWDTSLSAGRVFGGGTKLTVLG
notes: HC vector V1 (wild-type hIgG1 constant), LC vector V5 (kappa signal peptide, lambda constant); also called DVD041H; DVD041L
- EC50 [3]: 381 nM
- EC50 [4]: 7340 nM

B3: AB016 (anti-NRP1 (seq. 1) parent antibody) (antibody, IgG1, V domains shown)
VH: EVQLVESGGGLVQPGGSLRLSCAASGFSFSSEPISWVRQAPGKGLEWVSSITGKNGYTYYADSVKGRFTISADTSKNTAYLQMNSLRAEDTAVYYCARWGKKVYGMDVWGQGTLVTVSS
VL: DIQMTQSPSSLSASVGDRVTITCRASQSISSYLAWYQQKPGKAPKLLIYGASSRASGVPSRFSGSGSGTDFTLTISSLQPEDFATYYCQQYMSVPITFGQGTKVEIKR
notes: HC vector V1 (wild-type hIgG1 constant), LC vector V2 (kappa constant); also called AB016VH; AB016VL
- EC50 [5]: 0.58 nM

B4: DVD042 (IGF1,2 and VEGF (seq. 1) DVD-Ig) (bispecific antibody, IgG1)
VH: QVQLVQSGAEVKKPGASVKVSCKASGYTFTSYDINWVRQATGQGLEWMGWMNPNSGNTGYAQKFQGRVTMTRNTSISTAYMELSSLRSEDTAVYYCARDPYYYYYGMDVWGQGTTVTVSSASTKGPEVQLVESGGGLVQPGGSLRLSCAASGYTFTNYGMNWVRQAPGKGLEWVGWINTYTGEPTYAADFKRRFTFSLDTSKSTAYLQMNSLRAEDTAVYYCAKYPHYYGSSHWYFDVWGQGTLVTVSS
VL: QSVLTQPPSVSAAPGQKVTISCSGSSSNIENNHVSWYQQLPGTAPKLLIYDNNKRPSGIPDRFSGSKSGTSATLGITGLQTGDEADYYCETWDTSLSAGRVFGGGTKLTVLGQPKAAPDIQMTQSPSSLSASVGDRVTITCSASQDISNYLNWYQQKPGKAPKVLIYFTSSLHSGVPSRFSGSGSGTDFTLTISSLQPEDFATYYCQQYSTVPWTFGQGTKVEIKR
notes: HC vector V1 (wild-type hIgG1 constant), LC vector V4 (lambda signal peptide, kappa constant); also called DVD042H; DVD042L
- EC50 [6]: 2.54 nM
- EC50 [7]: 17.6 nM

B5: AB071 (antibody, human IgG1, kappa, L234A L235A, V domains shown)
VH: EVQLVESGGGLVQPGGSLRLSCAASGFTINASWIHWVRQAPGKGLEWVGAIYPYSGYTNYADSVKGRFTISADTSKNTAYLQMNSLRAEDTAVYYCARWGHSTSPWAMDYWGQGTLVTVSS
VL: DIQMTQSPSSLSASVGDRVTITCRASQVIRRSLAWYQQKPGKAPKLLIYAASNLASGVPSRFSGSGSGTDFTLTISSLQPEDFATYYCQQSNTSPLTFGQGTKVEIKR
- EC50 [8]: 0.38 nM

B6: AB010 (anti-IGF1,2 parent antibody) (antibody, IgG1, V domains shown)
VH: QVQLVQSGAEVKKPGASVKVSCKASGYTFTSYDINWVRQATGQGLEWMGWMNPNSGNTGYAQKFQGRVTMTRNTSISTAYMELSSLRSEDTAVYYCARDPYYYYYGMDVWGQGTTVTVSS
VL: QSVLTQPPSVSAAPGQKVTISCSGSSSNIENNHVSWYQQLPGTAPKLLIYDNNKRPSGIPDRFSGSKSGTSATLGITGLQTGDEADYYCETWDTSLSAGRVFGGGTKLTVLG
notes: HC vector V1 (wild-type hIgG1 constant), LC vector V3 (lambda constant); also called AB010VH; AB010VL
- EC50 [9]: 4.77 nM
- EC50 [10]: 10 nM and 18.1 nM

B7: DVD041 (bispecific antibody, human IgG1, lambda)
heavy: not shown
light: DIQMTQSPSSLSASVGDRVTITCSASQDISNYLNWYQQKPGKAPKVLIYFTSSLHSGVPSRFSGSGSGTDFTLTISSLQPEDFATYYCQQYSTVPWTFGQGTKVEIKRTVAAPQSVLTQPPSVSAAPGQKVTISCSGSSSNIENNHVSWYQQLPGTAPKLLIYDNNKRPSGIPDRFSGSKSGTSATLGITGLQTGDEADYYCETWDTSLSAGRVFGGGTKLTVLGQPKAAPSVTLFPPSSEELQANKATLVCLISDFYPGAVTVAWKADSSPVKAGVETTTPSKQSNNKYAASSYLSLTPEQWKSHRSYSCQVTHEGSTVEKTVAPTECS
notes: DVD-Ig; also called VEGF / IGF1,2 DVD-Ig; DVD041H
- EC50 [11]: 0.7 nM
- EC50 [12]: 381 nM
- EC50 [13]: 7340 nM

B8: AB047 (anti-PLGF (seq. 1) parent antibody) (antibody, IgG1, V domains shown)
VH: QVQLQQSGAELVKPGASVKISCKASGYTFTDYYINWVKLAPGQGLEWIGWIYPGSGNTKYNEKFKGKATLTIDTSSSTAYMQLSSLTSEDTAVYFCVRDSPFFDYWGQGTLLTVSS
VL: DIVLTQSPDSLAVSLGERVTMNCKSSQSLLNSGMRKSFLAWYQQKPGQSPKLLIYWASTRESGVPDRFTGSGSGTDFTLTISSVQAEDVAVYYCKQSYHLFTFGSGTKLEIKR
notes: HC vector V1 (wild-type hIgG1 constant), LC vector V2 (kappa constant); also called AB047VH; AB047VL
- EC50 [14]: 0.2 nM

B9: DVD043 (bispecific antibody, human IgG1, kappa)
heavy: not shown
light: DIQMTQSPSSLSASVGDRVTITCSASQDISNYLNWYQQKPGKAPKVLIYFTSSLHSGVPSRFSGSGSGTDFTLTISSLQPEDFATYYCQQYSTVPWTFGQGTKVEIKRTVAAPDIQMTQSPSSLSASVGDRVTITCRASQDVSTAVAWYQQKPGKAPKLLIYSASFLYSGVPSRFSGSGSGTDFTLTISSLQPEDFATTYYCQQSYTGTVTFGQGTKVEIKRTVAAPSVFIFPPSDEQLKSGTASVVCLLNNFYPREAKVQWKVDNALQSGNSQESVTEQDSKDSTYSLSSTLTLSKADYEKHKVYACEVTHQGLSSPVTKSFNRGEC
notes: DVD-Ig; also called VEGF / DLL4 DVD-Ig; DVD043H
- EC50 [11]: 0.2 nM
- EC50 [15]: 0.5 nM

B10: DVD049 (VEGF (seq. 1) and NRP1 (seq. 1) DVD-Ig) (bispecific antibody, IgG1)
VH: EVQLVESGGGLVQPGGSLRLSCAASGYTFTNYGMNWVRQAPGKGLEWVGWINTYTGEPTYAADFKRRFTFSLDTSKSTAYLQMNSLRAEDTAVYYCAKYPHYYGSSHWYFDVWGQGTLVTVSSASTKGPEVQLVESGGGLVQPGGSLRLSCAASGFSFSSEPISWVRQAPGKGLEWVSSITGKNGYTYYADSVKGRFTISADTSKNTAYLQMNSLRAEDTAVYYCARWGKKVYGMDVWGQGTLVTVSS
VL: DIQMTQSPSSLSASVGDRVTITCSASQDISNYLNWYQQKPGKAPKVLIYFTSSLHSGVPSRFSGSGSGTDFTLTISSLQPEDFATYYCQQYSTVPWTFGQGTKVEIKRTVAAPDIQMTQSPSSLSASVGDRVTITCRASQSISSYLAWYQQKPGKAPKLLIYGASSRASGVPSRFSGSGSGTDFTLTISSLQPEDFATYYCQQYMSVPITFGQGTKVEIKR
notes: HC vector V1 (wild-type hIgG1 constant), LC vector V2 (kappa constant); also called DVD049H; DVD049L
- EC50 [16]: 0.5 nM

B11: AB015 (anti-DLL-4 (seq. 1) parent antibody) (antibody, IgG1, V domains shown)
VH: EVQLVESGGGLVQPGGSLRLSCAASGFTFTDNWISWVRQAPGKGLEWVGYISPNSGFTYYADSVKGRFTISADTSKNTAYLQMNSLRAEDTAVYYCARDNFGGYFDYWGQGTLVTVSS
VL: DIQMTQSPSSLSASVGDRVTITCRASQDVSTAVAWYQQKPGKAPKLLIYSASFLYSGVPSRFSGSGSGTDFTLTISSLQPEDFATTYYCQQSYTGTVTFGQGTKVEIKR
notes: HC vector V1 (wild-type hIgG1 constant), LC vector V2 (kappa constant); also called AB015VH; AB015VL
- EC50 [17]: 0.31 nM

B12: DVD050 (NRP1 (seq. 1) and VEGF (seq. 1) DVD-Ig) (bispecific antibody, IgG1)
VH: EVQLVESGGGLVQPGGSLRLSCAASGFSFSSEPISWVRQAPGKGLEWVSSITGKNGYTYYADSVKGRFTISADTSKNTAYLQMNSLRAEDTAVYYCARWGKKVYGMDVWGQGTLVTVSSASTKGPEVQLVESGGGLVQPGGSLRLSCAASGYTFTNYGMNWVRQAPGKGLEWVGWINTYTGEPTYAADFKRRFTFSLDTSKSTAYLQMNSLRAEDTAVYYCAKYPHYYGSSHWYFDVWGQGTLVTVSS
VL: DIQMTQSPSSLSASVGDRVTITCRASQSISSYLAWYQQKPGKAPKLLIYGASSRASGVPSRFSGSGSGTDFTLTISSLQPEDFATYYCQQYMSVPITFGQGTKVEIKRTVAAPDIQMTQSPSSLSASVGDRVTITCSASQDISNYLNWYQQKPGKAPKVLIYFTSSLHSGVPSRFSGSGSGTDFTLTISSLQPEDFATYYCQQYSTVPWTFGQGTKVEIKR
notes: HC vector V1 (wild-type hIgG1 constant), LC vector V2 (kappa constant); also called DVD050H; DVD050L
- EC50 [18]: 0.46 nM
